Assay results published in IntAct's records for PubMed 24793651.

B1: Autophagy-related protein 13 (Saccharomyces cerevisiae), Q06628 (parent)
chain: MVAEEDIEKQVLQLIDSFFLKTTLLICSTESSRYQSSTENIFLFDDTWFEDHSELVSELPEIISKWSHYDGRKELPPLVVETYLDLRQLNSSHLVRLKDHEGHLWNVCKGTKKQEIVMERWLIELDNSSPTFKSYSEDETDVNELSKQLVLLFRYLLTLIQLLPTTELYQLLIKSYNGPQNEGSSNPITSTGPLVSIRTCVLDGSKPILSKGRIGLSKPIINTYSNALNESNLPAHLDQKKITPVWTKFGLLRVSVSYRRDWKFEINNTNDELFSARHASVSHNSQGPQNQPEQEGQSDQDIGKRQPQFQQQQQPQQQQQQQQQQQRQHQVQTQQQRQIPDRRSLSLSPCTRANSFEPQSWQKKVYPISRPVQPFKVGSIGSQSASRNPSNSSFFNQPPVHRPSMSSNYGPQMNIEGTSVGSTSKYSSSFGNIRRHSSVKTTENAEKVSKAVKSPLQPQESQEDLMDFVKLLEEKPDLTIKKTSGNNPPNINISDSLIRYQNLKPSNDLLSEDLSVSLSMDPNHTYHRGRSDSHSPLPSISPSMHYGSLNSRMSQGANASHLIARGGGNSSTSALNSRRNSLDKSSNKQGMSGLPPIFGGESTSYHHDNKIQKYNQLGVEEDDDDENDRLLNQMGNSATKFKSSISPRSIDSISSSFIKSRIPIRQPYHYSQPTTAPFQAQAKFHKPANKLIDNGNRSNSNNNNHNGNDAVGVMHNDEDDQDDDLVFFMSDMNLSKEG
partner: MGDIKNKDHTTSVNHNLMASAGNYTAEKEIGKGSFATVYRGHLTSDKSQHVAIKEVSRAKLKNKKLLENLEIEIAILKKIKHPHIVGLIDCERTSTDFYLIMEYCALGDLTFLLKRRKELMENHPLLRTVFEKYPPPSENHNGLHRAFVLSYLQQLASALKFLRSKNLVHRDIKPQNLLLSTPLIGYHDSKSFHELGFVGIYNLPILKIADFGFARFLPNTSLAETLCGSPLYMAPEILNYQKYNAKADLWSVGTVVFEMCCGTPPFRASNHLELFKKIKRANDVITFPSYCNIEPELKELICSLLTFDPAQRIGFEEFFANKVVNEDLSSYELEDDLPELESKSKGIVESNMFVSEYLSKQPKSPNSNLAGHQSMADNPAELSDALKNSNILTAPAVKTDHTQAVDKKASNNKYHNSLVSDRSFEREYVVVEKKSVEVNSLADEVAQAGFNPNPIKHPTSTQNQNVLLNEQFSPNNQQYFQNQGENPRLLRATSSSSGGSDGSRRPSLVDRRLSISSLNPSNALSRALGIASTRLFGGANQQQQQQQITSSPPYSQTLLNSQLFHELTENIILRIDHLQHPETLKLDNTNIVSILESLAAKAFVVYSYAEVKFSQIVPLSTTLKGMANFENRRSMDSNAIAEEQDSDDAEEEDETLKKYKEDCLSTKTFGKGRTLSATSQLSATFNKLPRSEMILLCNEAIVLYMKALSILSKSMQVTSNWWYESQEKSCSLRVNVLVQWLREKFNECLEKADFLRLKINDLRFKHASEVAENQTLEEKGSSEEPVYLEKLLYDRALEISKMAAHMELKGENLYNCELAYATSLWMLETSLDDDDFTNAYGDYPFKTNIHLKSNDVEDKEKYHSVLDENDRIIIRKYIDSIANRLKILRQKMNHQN
B2: Autophagy-related protein 13 (Saccharomyces cerevisiae), Q06628 (parent)
chain: B1 chain
partner: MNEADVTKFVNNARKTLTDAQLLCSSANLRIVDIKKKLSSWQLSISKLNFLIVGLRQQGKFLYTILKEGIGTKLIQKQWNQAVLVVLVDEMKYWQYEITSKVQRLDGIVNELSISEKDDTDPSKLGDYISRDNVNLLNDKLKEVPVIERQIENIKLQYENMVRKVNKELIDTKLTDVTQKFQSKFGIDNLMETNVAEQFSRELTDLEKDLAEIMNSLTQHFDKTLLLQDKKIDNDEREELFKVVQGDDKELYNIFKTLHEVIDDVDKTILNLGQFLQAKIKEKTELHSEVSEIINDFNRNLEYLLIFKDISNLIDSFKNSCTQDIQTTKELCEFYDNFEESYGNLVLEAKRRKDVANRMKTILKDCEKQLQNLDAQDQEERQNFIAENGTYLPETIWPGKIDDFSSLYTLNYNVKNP
B3: Autophagy-related protein 17 (Saccharomyces cerevisiae), Q06410 (parent)
chain: B2 partner
partner: B1 chain

Variants of: B1
Details: with atg1_yeast ATG1, P53104

Row | effect of a mutation on the interaction | Variant
1 | decreasing interaction strength | F468A

Variants of: B1
Details: with atg1_yeast ATG1, P53104
Remark: another data set of the same source

Row | effect of a mutation on the interaction | Variant
2 | disrupting interaction strength | F468A
3 | disrupting interaction strength | L472A

Variants of: B1
Details: with atg1_yeast ATG1, P53104
Remark: another data set of the same source

Row | effect of a mutation on the interaction | Variant
4 | disrupting interaction strength | F468A;L472A

Variants of: B2
Details: with atg17_yeast ATG17, Q06410

Row | effect of a mutation on the interaction | Variant
5 | disrupting interaction strength | S429D

Variants of: B2
Details: with atg17_yeast ATG17, Q06410
Remark: another data set of the same source

Row | effect of a mutation on the interaction | Variant
6 | disrupting interaction strength | R434A;R435A
7 | disrupting interaction strength | F430A;I433A
8 | disrupting interaction strength | S428A;S429A

Variants of: B3
Details: with atg13_yeast ATG13, Q06628

Row | effect of a mutation on the interaction | Variant
9 | decreasing interaction strength | I213A;S216A
10 | decreasing interaction strength | L240A;V243A
11 | disrupting interaction strength | D247A;E250A
12 | disrupting interaction strength | D247A
